Laboratory results as given in PMC9900518.

Target: GST-BRCA1-CT-M1775R (BRCT), human BRCA1 BRCT domain residues 1599-1863 (human) (UniProt P38398)
Test: pull-down; GST-tagged protein immobilised on glutathione-Sepharose beads; purified recombinant His-tagged protein; binding buffer 50 mM Tris-HCl pH 7.4, 100 mM NaCl, 0.4% Nonidet P-40, 10 mM MgCl2, 5 mM EDTA, 2 mM DTT; anti-His immunoblot

Substance: His-GIV-CT (aa 1660-1870) wild type (domain or fragment)
- fold change of binding against GST-BRCA1 BRCT wild type: 3 to 5 fold
